According to patent US20210371823A1:

Molecular target: human MICA protein (hMICA) (human) (UniProt Q29983)
Assay: cell-based or functional assay

Sequence of UniProt Q29983 (Q29983 24-383): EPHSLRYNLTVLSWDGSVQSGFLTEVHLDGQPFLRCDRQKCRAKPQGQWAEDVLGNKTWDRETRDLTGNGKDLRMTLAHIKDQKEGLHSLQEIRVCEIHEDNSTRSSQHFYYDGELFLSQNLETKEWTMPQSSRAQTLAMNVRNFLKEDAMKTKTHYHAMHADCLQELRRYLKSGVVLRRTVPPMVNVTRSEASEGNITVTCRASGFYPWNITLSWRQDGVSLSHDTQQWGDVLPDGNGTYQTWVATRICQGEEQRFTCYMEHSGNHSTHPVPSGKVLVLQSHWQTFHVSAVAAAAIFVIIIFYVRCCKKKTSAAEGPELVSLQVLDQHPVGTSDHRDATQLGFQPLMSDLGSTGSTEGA

Work on “activation receptor NKG2D on NK cells (from UniProt P26718 1-216)” yielded a killing effect of NK cells on 3T3-Luc/hMICA cells at effector-target ratio 1:1 (luciferase-based killing assay) of 60%.
